Source: article PMC8831504

Biological target: cpNanoLuc α-amylase biosensor (VHH-cpNanoLuc-VHH fusion)
Assay: luminescence titration of a single-component biosensor; 1 nM biosensor in 200 μl 20 mM Tris-HCl pH 7.2, 100 mM NaCl with 0.25 μl furimazine stock, titrated with its protein ligand; preincubated 15 min at room temperature; luminescence 445-470 nm; fit to a quadratic binding equation

Chain of cpNanoLuc α-amylase biosensor (VHH-cpNanoLuc-VHH fusion) (main, as listed by the source): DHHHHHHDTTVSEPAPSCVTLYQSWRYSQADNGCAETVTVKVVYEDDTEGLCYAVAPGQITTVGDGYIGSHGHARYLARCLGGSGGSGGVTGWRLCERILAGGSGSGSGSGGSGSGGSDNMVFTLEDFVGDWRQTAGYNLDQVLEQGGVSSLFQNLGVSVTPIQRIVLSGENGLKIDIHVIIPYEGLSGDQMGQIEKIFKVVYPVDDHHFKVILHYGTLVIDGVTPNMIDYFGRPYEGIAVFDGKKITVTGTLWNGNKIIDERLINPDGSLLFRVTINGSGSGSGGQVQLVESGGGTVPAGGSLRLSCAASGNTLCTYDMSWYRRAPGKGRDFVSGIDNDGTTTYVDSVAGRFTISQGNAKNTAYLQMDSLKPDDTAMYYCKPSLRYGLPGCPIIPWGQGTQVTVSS

B1: human α-amylase (enzyme)
chain: QYSSNTQQGRTSIVHLFEWRWVDIALECERYLAPKGFGGVQVSPPNENVAIHNPFRPWWERYQPVSYKLCTRSGNEDEFRNMVTRCNNVGVRIYVDAVINHMCGNAVSAGTSSTCGSYFNPGSRDFPAVPYSGWDFNDGKCKTGSGDIENYNDATQVRDCRLSGLLDLALGKDYVRSKIAEYMNHLIDIGVAGFRIDASKHMWPGDIKAILDKLHNLNSNWFPEGSKPFIYQEVIDLGGEPIKSSDYFGNGRVTEFKYGAKLGTVIRKWNGEKMSYLKNWGEGWGFMPSDRALVFVDNHDNQRGHGAGGASILTFWDARLYKMAVGFMLAHPYGFTRVMSSYRWPRYFENGKDVNDWVGPPNDNGVTKEVTINPDTTCGNDWVCEHRWRQIRNMVNFRNVVDGQPFTNWYDNGSNQVAFGRGNRGFIVFNNDDWTFSLTLQTGLPAGTYCDVISGDKINGNCTGIKIYVSDDGKAHFSISNSAEDPFIAIHAESKL
Kd: 0.5 nM
